Results reported in patent US8367612B2, “Compositions containing, methods involving, and uses of non-natural amino acids and polypeptides” (Ambrx, Inc., priority 2004, dated 2013).

Assay: Pharmacokinetic studies, single s.c. dose in rats, plasma concentration by growth hormone ELISA
Format: in vivo
Details: single-dose 1 mg/kg bolus s.c., normal male Sprague-Dawley rats; average
Procedure: Pharmacokinetic properties of PEG-modified growth hormone compounds were compared to each other and to nonPEGylated growth hormone in male Sprague-Dawley rats (261-425 g) obtained from Charles River Laboratories. Catheters were surgically installed into the carotid artery for blood collection. Following successful catheter installation, animals were assigned to treatment groups (three to six per group) prior to dosing. Animals were dosed subcutaneously with 1 mg/kg of compound in a dose volume of 0.41-0.55 ml/kg. Blood samples were collected at various time points via the indwelling catheter and into EDTA-coated microfuge tubes. Plasma was collected after centrifugation, and stored at −80° C. until analysis. Compound concentrations were measured using antibody sandwich growth hormone ELISA kits from either BioSource International (Camarillo, Calif.) or Diagnostic Systems Laboratories (Webster, Tex.). Concentrations were calculated using standards corresponding to the analog that was dosed. Pharmacokinetic parameters were estimated using the modeling program WinNonlin (Pharsight, version 4.1). Noncompartmental analysis with linear-up/log-down trapezoidal integration was used, and concentration data was uniformly weighted.
Plasma concentrations were obtained at regular intervals following a single subcutaneous dose in rats. […] Plasma samples were taken over the regular time intervals and assayed for injected compound as described. […] Concentration vs time curves were evaluated by noncompartmental analysis (Pharsight, version 4.1). Values shown are averages (+/− standard deviation). Cmax: maximum concentration; terminal t1/2: terminal half-life; AUC0→inf: area under the concentration-time curve extrapolated to infinity; MRT: mean residence time; Cl/f: apparent total, plasma clearance; Vz/f: apparent volume of distribution during terminal phase.

Row | Substance | AUC 0->inf | Cl/f [mL/min/kg] | Cmax | MRT [h] | Terminal t1/2 [h]
1 | 30KPEG-pAF145(his)hGH: "His-tagged hGH polypeptide comprising non-natural amino acid p-acetyl-phenylalanine covalently linked to 30 kDa PEG at each of six different positions" | 13,162 ng × hr/ml | 1.47 | 634 ng/mL | 17.82 | 5.87
2 | 30KPEG-pAF143(his)hGH: "His-tagged hGH polypeptide comprising non-natural amino acid p-acetyl-phenylalanine covalently linked to 30 kDa PEG at each of six different positions" | 17,494 ng × hr/ml | 0.983 | 803 ng/mL | 18.83 | 6.02
3 | 30KPEG-pAF134(his)hGH: "His-tagged hGH polypeptide comprising non-natural amino acid p-acetyl-phenylalanine covalently linked to 30 kDa PEG at each of six different positions" | 7,304 ng × hr/ml | 2.52 | 566 ng/mL | 12.15 | 4.36
4 | 30KPEG-pAF35(his)hGH: "hGH polypeptides comprising p-acetyl-phenylalanine covalently-linked to 30 kDa PEG at positions 35 and 92" (position 35, His-tagged) | 39,918 ng × hr/ml | 0.583 | 1,885 ng/ml | 19.16 | 4.85
5 | 30KPEG-pAF131(his)hGH: "His-tagged hGH polypeptide comprising non-natural amino acid p-acetyl-phenylalanine covalently linked to 30 kDa PEG at each of six different positions" | 6,978 ng × hr/ml | 2.68 | 497 ng/mL | 14.28 | 4.41
